The data set addresses His6-Phox2a (1-149) (Mus musculus, UniProt Q62066 Q62066:1-149). In words: footprint; DNase I footprint. Conditions: tags: N-terminal His6, pET15b, E. coli BL21(DE3); label: 32P.

This is an account of results in US20040024191, “Multimerized DBH enhancer domains” (published 2004).

His6-Phox2a (1-149), sequence (Q62066 1-149, one chain of several): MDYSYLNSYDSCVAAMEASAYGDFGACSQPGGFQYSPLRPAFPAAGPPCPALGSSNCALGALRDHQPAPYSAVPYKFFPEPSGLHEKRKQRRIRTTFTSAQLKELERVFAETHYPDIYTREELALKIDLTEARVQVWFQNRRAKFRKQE

B1: PBS3 (dsDNA)
DNA 1: GAGGGAAAATTGGATTCCCCG
DNA 2: CGGGGAATCCAATTTTCCCTC
For the molecule B1, the binding result was “binds”.
